The values that follow come from patent US20100234274A1, “Use of Nestafin-1 in the Treatment for Diabetes” (priority 2009, published 2010).

The test system of data set [1] is db/db mice. Description: Inhibitor pre-treatment before i.v. nesfatin-1 in db/db mice, blood glucose. The class given is in vivo, mouse. The following applies: blood glucose in 6 hours. As for the experimental part:
GW9662, a PPAR-gamma irreversible inhibitor, was i.v. injected into the tail vein of db/db mice at the dose of 0.45 μg per gram body weight. After 30 minutes, 100 ug Nesfatin-1 was injected into the tail vein of db/db mice. Blood glucose was measured in 6 hours.
Compound C, a 5′-AMP-activated protein kinase (AMPK) specific inhibitor, was intraperitoneally injected to db/db mice at the dose of 20 mg per kg body weight. Subsequently, 100 ug Nesfatin-1 was injected into the tail vein of db/db mice. Blood glucose was measured in 6 hours.

The target in a further data set is T1, recombinant nesfatin-1 (UniProt P81117).
T1 sequence: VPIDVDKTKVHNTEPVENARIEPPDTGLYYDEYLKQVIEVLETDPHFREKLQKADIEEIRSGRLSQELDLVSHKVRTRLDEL

In data set [2] the test system is db/db mice. Description: i.v. injection of plasmin inhibitors in db/db mice (serum nesfatin-1, food intake, body weight). The class given is in vivo, mouse. The following applies: for circulating nesfatin-1: serum at 30 minutes. As for the experimental part: Lower nesfatin-1 in “saline” than “ff db/db” (FIG. 3b) was due to blood dilution after injection. (b) Reduction in body weight after a 3-day i.v. AMCA (15 mg/day); (c) Food intake at day 3 during a 3-day i.v. AMCA (15 mg/day).
Hypothalamus in acetic acid supplemented with protease inhibitor cocktail tablets (Roche, Indianapolis, Ind.) was homogenized, sonicated and heated at 95° C. for 15 minutes. The samples were then centrifuged at 13,200 rpm at 4° C. for 30 minutes. The supernatants were finally collected as their protein contents were determined by the Bradford assay (Thermo-Fisher Sci. Rockford, Ill.). Mouse serum was freshly prepared by drawing blood through ophthalmectomy. About […] hypothalamic total proteins or 25 μL serum were analyzed with Waters Delta 600E/2487/717 HPLC system using an analytical C18 reverse phase column (4.6×250 mm/5 μm, Hambon, Zhangjiagang, Conn.). Nesfatin-1 was eluted with a linear gradient from 20%-40% solvent B (solvent A: water with 0.1% trifluoroacetic acid, solvent B: acetonitrile with 0.1% trifluoroacetic acid) for 20 minutes at the flow rate of iml/minute. The purified nesfatin-1 was used as the standard to determine the retention time and plot the standard curve. The fraction collected at the retention time was sent for the mass spectrometry analysis.
It is unknown how nesfatin-1 is cleared from circulation. The tiny amount of plasmin generation in periphery was previously reported and confirmed in our study (data not shown). AMCA and aprotinin, two inhibitors of plasmin, was i.v. injected to db/db. The reduction in food intake and body weight was seen while circulating nesfatin-1 was increased (FIG. 8). […] Therefore, peripheral nesfatin-1 was believed at least partially to be degraded by plasmin.

The test system of data set [3] is rats. The following applies: injected directly into the brain of rats; cited from earlier work.
For data set [4] the following is noted: both directions, nonsaturable system; cited from earlier work.
In a further data set the target is plasmin (Homo sapiens, UniProt P00747). Briefly: Incubation of recombinant nesfatin-1 with plasmin. The class given is biochemical. The method, then: Arrows indicated the putative cleavage sites by plasmin. (b) Nesfatin-1 was completely digested by plasmin within 2 hours.
The recovery of hypothalamic nesfatin-1 in plg^−/−lepr^−/− was consistent to its normalization in food intake and body weight (FIG. 2ac). Fasted mice always had less nesfatin-1 in hypothalamus than their freely feeding counterparties (FIG. 5b). Furthermore, plasminogen deficiency provided a unique approach to study the chronic effect of elevated nesfatin-1 in hyperphagic obese animals, which was impossible for the i.c.v. or i.p. administration due to the short half-time of nesfatin-1. Consequently, agrp and npy were found reduced in plg^−/−lepr^−/−, while pomc was elevated compared with plg^+/+lepr^−/− (FIG. 6), contradicting to the previous report that i.c.v. nesfatin-1 didn't alter the expression of pomc, npy and agrp. Consistent to the present finding, the same group reported the up-regulation of pomc by i.p. nesfatin-1 in NTS recently.

For data set [5], the system named is db/db mice. Briefly: Blood glucose after i.v. nesfatin-1 in db/db mice. The class given is in vivo, mouse.
For data set [6] the following is noted: i.c.v. or i.p. injection; cited from earlier work.
The subject of data set [7] is rats. The following applies: cited from earlier work.
Another data set relates to ob/ob mice. Description: Blood lipid analysis after i.v. nesfatin-1 in ob/ob mice. The class given is in vivo, mouse. The following applies: 100 ug tail vein, 3 hours after injection. As for the experimental part: One hundred ug Nesfatin-1 was injected into the tail vein of ob/ob mice. Blood samples were taken 3 hours after the injection for lipid analysis.
The subject of data set [8] is Streptozotocin-induced type-I diabetic C57BL/6J mice. Description: Streptozotocin-induced type-I diabetic mice, blood glucose. The class given is in vivo. The following applies: 100 μg/mouse i.v. alone or combined with s.c. insulin (2 ng/mouse). As for the experimental part: (§1) Amazingly as described above, the diabetic symptoms of db/db mice were essentially eliminated in plg^−/−lepr^−/−, which couldn't be possibly explained by the anorexigenic effect of nesfatin-1.
Male C57BL/6J mice (10 weeks) were given intraperitoneal injections of Streptozotocin (STZ) in sodium citrate (pH 4.5) on two consecutive days (100 mg/kg/day). Blood glucose was measured by tail vein sampling using the glucose oxidase enzymatic test. Diabetes was defined as a morning blood glucose reading of >16 mM after STZ. When blood glucose levels exceeded 30 mM, diabetic mice were given 16 ng of porcine insulin (Wangbang, Xuzhou, Conn.) every second day to prevent weight loss while maintaining blood glucose levels within the hyperglycemic range (16-30 mM). Nesfatin-1 (100 μg/mouse) was i.v. injected either alone or combined with s.c. insulin (2 ng/mouse) to STZ-induced type-I diabetic mice.

A short description of data set [9]: Clearance of i.v. nesfatin-1 from circulation. The class given is in vivo, mouse.
The next data set concerns wild-type mice. Description: Intraperitoneal glucose tolerance test (IGTT) in wild-type mice. The class given is in vivo, mouse. The following applies: 100 μg nesfatin-1, i.v. injection of 1.5 g/kg glucose. The method, then: Mice of the investigated genotype (plg^+/+lepr^−/−, plg^−/−lepr^−/−, plg^+/+lepr^+/+, plg^−/−lepr^+/+) were fasted for 18 hours at 8, 16 and 24 weeks old, before blood sampling from tail veins to measure fasting blood glucose using a glucose meter (Accu-Chek, Roche). Mice serum insulin was measured at the age of 12 weeks by ELISA (ALPCO, Salem, N.H.). IGTT was performed previously. As briefly, 12-week old mice were placed in clean cages without food at 4 pm on the day prior to the experiment. […] Blood glucose was measured immediately before and at 10, 20, 30, 60, 90, 120, and 180 minutes after the injection of glucose.
as §1

Bounds are passed on as bounds.

plasmin, sequence (P00747 97-810, species assumed): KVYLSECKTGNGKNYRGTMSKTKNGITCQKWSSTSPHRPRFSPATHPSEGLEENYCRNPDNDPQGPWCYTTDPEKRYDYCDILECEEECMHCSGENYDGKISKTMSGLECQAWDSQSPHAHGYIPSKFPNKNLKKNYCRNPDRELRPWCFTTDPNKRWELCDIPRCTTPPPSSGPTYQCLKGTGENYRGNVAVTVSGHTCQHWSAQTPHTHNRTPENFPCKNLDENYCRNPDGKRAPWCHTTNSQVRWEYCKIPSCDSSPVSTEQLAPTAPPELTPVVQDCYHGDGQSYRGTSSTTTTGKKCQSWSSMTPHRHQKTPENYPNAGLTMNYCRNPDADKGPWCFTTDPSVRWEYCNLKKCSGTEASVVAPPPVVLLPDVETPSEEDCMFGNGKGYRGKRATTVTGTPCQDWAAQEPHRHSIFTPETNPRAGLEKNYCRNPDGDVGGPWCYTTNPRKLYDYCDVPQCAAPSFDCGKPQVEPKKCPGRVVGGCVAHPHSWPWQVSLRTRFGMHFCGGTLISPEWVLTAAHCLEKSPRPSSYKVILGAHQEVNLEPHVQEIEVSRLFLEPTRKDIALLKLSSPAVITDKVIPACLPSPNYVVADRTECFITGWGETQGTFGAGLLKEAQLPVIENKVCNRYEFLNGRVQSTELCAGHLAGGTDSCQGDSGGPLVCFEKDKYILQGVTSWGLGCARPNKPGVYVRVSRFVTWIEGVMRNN
plasmin, sequence (P00747 97-580 partner limits assumed, species assumed): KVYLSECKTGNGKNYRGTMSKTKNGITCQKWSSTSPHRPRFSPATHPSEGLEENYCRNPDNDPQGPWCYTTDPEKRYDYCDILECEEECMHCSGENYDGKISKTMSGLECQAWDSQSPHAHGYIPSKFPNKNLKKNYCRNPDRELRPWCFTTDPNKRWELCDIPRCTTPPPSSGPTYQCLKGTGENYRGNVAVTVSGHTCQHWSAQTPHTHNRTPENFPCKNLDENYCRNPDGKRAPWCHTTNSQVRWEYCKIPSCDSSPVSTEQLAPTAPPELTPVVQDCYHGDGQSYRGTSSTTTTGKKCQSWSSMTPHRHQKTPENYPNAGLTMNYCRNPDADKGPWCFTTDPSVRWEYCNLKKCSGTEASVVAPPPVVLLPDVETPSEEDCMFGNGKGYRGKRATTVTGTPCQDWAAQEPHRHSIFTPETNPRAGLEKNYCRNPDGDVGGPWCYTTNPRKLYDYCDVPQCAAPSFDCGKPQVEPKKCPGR

For `O=C(Nc1ccccc1)c1cc([N+](=O)[O-])ccc1Cl` [GW9662], the “inhibition of the anti-diabetic effect of nesfatin-1” value with db/db mice [1] (0.45 μg per gram body weight i.v., 30 minutes before 100 ug nesfatin-1) is “fully inhibited”.
Turning to plasmin, in the data set with recombinant nesfatin-1, the “degradation of recombinant nesfatin-1 on incubation with plasmin” value was “It was then incubated with plasmin and rapidly degraded as expected”; the “digestion of nesfatin-1 by plasmin (in vitro incubation)” value is recorded as “Nesfatin-1 was completely digested by plasmin within 2 hours”.
On to `NC[C@H]1CC[C@H](C(=O)O)CC1` [AMCA, tranexamic acid], for which, in the data set with db/db mice [2], the body weight entry is on record as “reduction”, the food intake result is given as “reduction” and the “circulating nesfatin-1” value is given as “increased”.
As for aprotinin, in the data set with db/db mice [2], the body weight entry is recorded as “reduction”, the food intake result is listed as “reduction” and the “circulating nesfatin-1” value is recorded as “increased”.
Turning to `c1cc(-c2cnn3cc(-c4ccc(OCCN5CCCCC5)cc4)cnc23)ccn1` [Compound C], the “inhibition of the anti-diabetic effect of nesfatin-1” value with db/db mice [1] (20 mg per kg body weight intraperitoneally before 100 ug nesfatin-1) is “fully inhibited”.

B1: NUCB2: hypothalamus-secreted protein containing 396 amino acids, precursor of nesfatin-1 (protein, UniProt P80303 25-420, looked up)
Nucleobindin-2: VPIDIDKTKVQNIHPVESAKIEPPDTGLYYDEYLKQVIDVLETDKHFREKLQKADIEEIKSGRLSKELDLVSHHVRTKLDELKRQEVGRLRMLIKAKLDSLQDIGMDHQALLKQFDHLNHLNPDKFESTDLDMLIKAATSDLEHYDKTRHEEFKKYEMMKEHERREYLKTLNEEKRKEEESKFEEMKKKHENHPKVNHPGSKDQLKEVWEETDGLDPNDFDPKTFFKLHDVNSDGFLDEQELEALFTKELEKVYDPKNEEDDMVEMEEERLRMREHVMNEVDTNKDRLVTLEEFLKATEKKEFLEPDSWETLDQQQFFTEEELKEYENIIALQENELKKKADELQKQKEELQRQHDQLEAQKLEYHQVIQQMEQKKLQQGIPPSGPAGELKFEPHI
On to B1, for which, in the data set on rats [3], the body weight entry is “decreases body weight” and the feeding entry is “promotes anorexia”.

B2: nesfatin-1: recombinant nesfatin-1 expressed and purified from genetically engineered E. coli; secreted N-terminus fragment of NUCB2 (protein)
peptide: T1 sequence
Consider B2, for which the “blood brain barrier crossing” value in [4] is “crosses the Blood Brain Barrier (BBB)”. Also, the “time to complete digestion by plasmin” value with plasmin (FIG. 4b) was no more than 2 h. Also, the “degradation on incubation with plasmin” value with plasmin (recombinant nesfatin-1 from E. coli) is “rapidly degraded”. In addition, in the data set on db/db mice [5] (100 μg i.v., freely fed db/db), the blood glucose result was “significantly reduced”. In the data set on db/db mice [5] (i.c.v. injection, db/db, data not shown), the diabetic improvement entry was “little diabetic improvement”. In the data set with db/db mice [5] (i.v.), the “duration of anti-diabetic effect” value was greater than 6 h. Besides, the “dose and time dependence of anti-diabetic effect” value in the data set with db/db mice [5] (i.v., FIG. 7d, e) was “dose- and time-dependent”. Further, in data set [6], the body weight entry is recorded as “reduces body weight” and the food intake result is “inhibits food intake”. Further, the neuropsychological effect result with rats [7] was “increasing anxiety and fear-related behaviors”. In the data set with ob/ob mice, the HDL in blood entry is given as “unaffected”, the LDL in blood entry is “significantly reduced”, the “total cholesterol in blood” value is “significantly reduced” and the triglyceride in blood result is listed as “significantly reduced”. Also, the blood glucose result in data set [8] is given as “decreased only when nesfatin-1 was injected with s.c. insulin”. The “clearance in plg−/− versus plg+/+” value in data set [9] (i.v., data not shown) is listed as “cleared much slower”. This molecule also returned a half-life in circulation in [9] (mouse, in vivo) of 10 min. The “uptake of blood sugar during IGTT” value with wild-type mice is “significantly enhanced the uptake of blood sugar”.
